Data taken from patent US20260167721A1 (ABLEXIS, published 2026).

Assays:
[1] = biological target: T1, human CD3 (TCR/CD3 complex on the cell surface) (human, UniProt P07766 23-207; P04234 22-171; P09693 23-182); experiment: flow cytometry, Pan-T cells, 1 ug/mL
T1 construct: whole, on cells; Native CD3 on human Pan-T cells or Jurkat wild-type cells; also called CD3 on Pan-T cells; CD3 on Jurkat WT cells

[2] = biological target: T1, human CD3 (TCR/CD3 complex on the cell …); experiment: flow cytometry, Pan-T cells, 10 ug/mL
[3] = biological target: T1, human CD3 (TCR/CD3 complex on the cell …); experiment: flow cytometry, Jurkat WT cells, 1 ug/mL
[4] = biological target: T1, human CD3 (TCR/CD3 complex on the cell …); experiment: flow cytometry, Jurkat WT cells, 10 ug/mL
[5] = biological target: T1, human CD3 (TCR/CD3 complex on the cell …); experiment: flow cytometry, Jurkat WT gMFI over Jurkat KO gMFI, 1 ug/mL
[6] = biological target: T1, human CD3 (TCR/CD3 complex on the cell …); experiment: flow cytometry, Jurkat WT gMFI over Jurkat KO gMFI, 10 ug/mL

T1 sequence (P07766 23-207, chain 1 of 3): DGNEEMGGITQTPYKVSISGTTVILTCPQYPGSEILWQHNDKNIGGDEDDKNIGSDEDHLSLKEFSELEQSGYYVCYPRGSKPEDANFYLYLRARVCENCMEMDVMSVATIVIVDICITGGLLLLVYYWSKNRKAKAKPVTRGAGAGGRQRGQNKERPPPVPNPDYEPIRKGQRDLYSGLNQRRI
T1 sequence (P04234 22-171, chain 2 of 3): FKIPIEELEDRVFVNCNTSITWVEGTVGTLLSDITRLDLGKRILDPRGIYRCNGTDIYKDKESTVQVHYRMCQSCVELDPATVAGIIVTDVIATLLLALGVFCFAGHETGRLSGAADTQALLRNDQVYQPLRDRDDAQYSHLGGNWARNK
T1 sequence (P09693 23-182, chain 3 of 3): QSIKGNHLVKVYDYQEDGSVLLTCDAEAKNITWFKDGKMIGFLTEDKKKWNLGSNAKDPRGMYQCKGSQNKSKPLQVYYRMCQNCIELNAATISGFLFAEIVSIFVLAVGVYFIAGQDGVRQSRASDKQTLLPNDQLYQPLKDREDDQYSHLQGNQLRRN

B1: CD3 × CD33-BspAb72 (bispecific antibody)
chain 1: EVQLVESGGGLVQPGGSLRLSCAASGFTFSSYSMNWVRQAPGKCLEWVSYISSSSSTIYYADSVKGRFTISRDNAKNSLYLQMNSLRDEDTAVYYCARDGPVDYGMDVWGQGTTVTVSSGGGGSGGGGSGGGGSGGGGSSYELTQPPSVSVSPGQTARITCSGDALPKQYTYWYQQKPGQAPVLVIYKDSERPSGIPERFSGSSSGTTVTLTISGVQAEDEADYYCQSADSSGTYRVFGCGTKLTVLDKTHTCPPCPAPEFEGGPSVFLFPPKPKDTLMISRTPEVTCVVVDVSHEDPEVKFNWYVDGVEVHNAKTKPREEQYNSTYRVVSVLTVLHQDWLNGKEYKCKVSNKALPASIEKTISKAKGQPREPQVYTLPPCREEMTKNQVSLWCLVKGFYPSDIAVEWESNGQPENNYKTTPPVLDSDGSFFLYSKLTVDKSRWQQGNVFSCSVMHEALHNHYTQKSLSLSPGK
chain 2: EVQLVQSGAEVKKPGSSVKVSCKASGYTITDSNIHWVRQAPGQSLEWIGYIYPYNGGTDYNQKFKNRATLTVDNPTNTAYMELSSLRSEDTAFYYCVNGNPWLAYWGQGTLVTVSSASTKGPSVFPLAPSSKSTSGGTAALGCLVKDYFPEPVTVSWNSGALTSGVHTFPAVLQSSGLYSLSSVVTVPSSSLGTQTYICNVNHKPSNTKVDKRVEPKSCDKTHTCPPCPAPEFEGGPSVFLFPPKPKDTLMISRTPEVTCVVVDVSHEDPEVKFNWYVDGVEVHNAKTKPREEQYNSTYRVVSVLTVLHQDWLNGKEYKCKVSNKALPASIEKTISKAKGQPREPQVCTLPPSREEMTKNQVSLSCAVKGFYPSDIAVEWESNGQPENNYKTTPPVLDSDGSFFLVSKLTVDKSRWQQGNVFSCSVMHEALHNRFTQKSLSLSPGK
chain 3: DIQLTQSPSTLSASVGDRVTITCRASESLDNYGIRFLTWFQQKPGKAPKLLMYAASNQGSGVPSRFSGSGSGTEFTLTISSLQPDDFATYYCQQTKEVPWSFGQGTKVEVKRTVAAPSVFIFPPSDEQLKSGTASVVCLLNNFYPREAKVQWKVDNALQSGNSQESVTEQDSKDSTYSLSSTLTLSKADYEKHKVYACEVTHQGLSSPVTKSFNRGEC
For B1, the “% Positive” value [1] was 2%, the gMFI [1] was 2430 gMFI and the “% Positive” value [2] was 66.1%. It also gave a gMFI [2] of 8340 gMFI, a gMFI [3] of 1950 gMFI and a gMFI [4] of 3760 gMFI. For the same binder, the “Jurkat WT/KO (Fold)” value [5] was 1 fold and the “Jurkat WT/KO (Fold)” value [6] was 2 fold.

B2: CD3 × CD33-BspAb76 (bispecific antibody)
chain 1: EVQLVESGGGLVKPGGSLRLSCAASGFTFSSYSMNWVRQAPGKCLEWVSSISRRSGYIYYADSVKGRFTLSRDNAKKSLYLQMNSLRAEDTAVYYCARDLNWAFDYWGQGTLVTVSSGGGGSGGGGSGGGGSGGGGSNFMLTQPHSVSESPGKTVTISCTRSSGSIASNYVQWYQQRPGSSPTTVIYEDNHRPSGVPDRFSGSIDSSSNSASLTIAGLKTEDEADYYCQSSDSSNVVFGCGTKLTVLDKTHTCPPCPAPEFEGGPSVFLFPPKPKDTLMISRTPEVTCVVVDVSHEDPEVKFNWYVDGVEVHNAKTKPREEQYNSTYRVVSVLTVLHQDWLNGKEYKCKVSNKALPASIEKTISKAKGQPREPQVYTLPPCREEMTKNQVSLWCLVKGFYPSDIAVEWESNGQPENNYKTTPPVLDSDGSFFLYSKLTVDKSRWQQGNVFSCSVMHEALHNHYTQKSLSLSPGK
chain 2: EVQLVQSGAEVKKPGSSVKVSCKASGYTITDSNIHWVRQAPGQSLEWIGYIYPYNGGTDYNQKFKNRATLTVDNPTNTAYMELSSLRSEDTAFYYCVNGNPWLAYWGQGTLVTVSSASTKGPSVFPLAPSSKSTSGGTAALGCLVKDYFPEPVTVSWNSGALTSGVHTFPAVLQSSGLYSLSSVVTVPSSSLGTQTYICNVNHKPSNTKVDKRVEPKSCDKTHTCPPCPAPEFEGGPSVFLFPPKPKDTLMISRTPEVTCVVVDVSHEDPEVKFNWYVDGVEVHNAKTKPREEQYNSTYRVVSVLTVLHQDWLNGKEYKCKVSNKALPASIEKTISKAKGQPREPQVCTLPPSREEMTKNQVSLSCAVKGFYPSDIAVEWESNGQPENNYKTTPPVLDSDGSFFLVSKLTVDKSRWQQGNVFSCSVMHEALHNRFTQKSLSLSPGK
chain 3: DIQLTQSPSTLSASVGDRVTITCRASESLDNYGIRFLTWFQQKPGKAPKLLMYAASNQGSGVPSRFSGSGSGTEFTLTISSLQPDDFATYYCQQTKEVPWSFGQGTKVEVKRTVAAPSVFIFPPSDEQLKSGTASVVCLLNNFYPREAKVQWKVDNALQSGNSQESVTEQDSKDSTYSLSSTLTLSKADYEKHKVYACEVTHQGLSSPVTKSFNRGEC
B2 was tested, and the “% Positive” value [1] was 50.2%, the gMFI [1] was 6790 gMFI and the “% Positive” value [2] was 99.5%. It also gave a gMFI [2] of 43400 gMFI, a gMFI [3] of 3180 gMFI and a gMFI [4] of 9780 gMFI. For the same binder, the “Jurkat WT/KO (Fold)” value [5] was 1.5 fold and the “Jurkat WT/KO (Fold)” value [6] was 4.4 fold.

B3: CD3 × CD33-BspAb73 (bispecific antibody)
scFv-Fc: EVQLVESGGGLVKPGGSLRLSCAASGFTFSSYSMNWVRQAPGKCLEWVSSVNSRGSYIYYADSVKGRFTISRDNAKDSLYLQMNSLRADDTAVYYCARDRRELLLDYWGQGTLVTVSSGGGGSGGGGSGGGGSGGGGSSYELTQPPSVSVSPGQTARITCSGDALPKKYAYWYQQKSGQAPVLVIYEDSKRPSGIPERFSGSSSGTMATLTISGAQVEDEADYYCYSTDSSGNHSWVFGCGTKLTVLGGGGSDKTHTCPPCPAPEFEGGPSVFLFPPKPKDTLMISRTPEVTCVVVDVSHEDPEVKFNWYVDGVEVHNAKTKPREEQYNSTYRVVSVLTVLHQDWLNGKEYKCKVSNKALPASIEKTISKAKGQPREPQVYTLPPCREEMTKNQVSLWCLVKGFYPSDIAVEWESNGQPENNYKTTPPVLDSDGSFFLYSKLTVDKSRWQQGNVFSCSVMHEALHNHYTQKSLSLSPGK
heavy: EVQLVQSGAEVKKPGSSVKVSCKASGYTITDSNIHWVRQAPGQSLEWIGYIYPYNGGTDYNQKFKNRATLTVDNPTNTAYMELSSLRSEDTAFYYCVNGNPWLAYWGQGTLVTVSSASTKGPSVFPLAPSSKSTSGGTAALGCLVKDYFPEPVTVSWNSGALTSGVHTFPAVLQSSGLYSLSSVVTVPSSSLGTQTYICNVNHKPSNTKVDKRVEPKSCDKTHTCPPCPAPEFEGGPSVFLFPPKPKDTLMISRTPEVTCVVVDVSHEDPEVKFNWYVDGVEVHNAKTKPREEQYNSTYRVVSVLTVLHQDWLNGKEYKCKVSNKALPASIEKTISKAKGQPREPQVCTLPPSREEMTKNQVSLSCAVKGFYPSDIAVEWESNGQPENNYKTTPPVLDSDGSFFLVSKLTVDKSRWQQGNVFSCSVMHEALHNRFTQKSLSLSPGK
light: DIQLTQSPSTLSASVGDRVTITCRASESLDNYGIRFLTWFQQKPGKAPKLLMYAASNQGSGVPSRFSGSGSGTEFTLTISSLQPDDFATYYCQQTKEVPWSFGQGTKVEVKRTVAAPSVFIFPPSDEQLKSGTASVVCLLNNFYPREAKVQWKVDNALQSGNSQESVTEQDSKDSTYSLSSTLTLSKADYEKHKVYACEVTHQGLSSPVTKSFNRGEC
notes: KiH heterodimer
B3 was tested, and the “% Positive” value [1] was 17.3%, the gMFI [1] was 4180 gMFI and the “% Positive” value [2] was 95.9%. For the same binder, the gMFI [2] was 22000 gMFI, the gMFI [3] was 2510 gMFI and the gMFI [4] was 6110 gMFI. The “Jurkat WT/KO (Fold)” value [5] was 1.2 fold and the “Jurkat WT/KO (Fold)” value [6] was 3 fold.

B4: CD3 × CD33-BspAb75 (bispecific antibody)
scFv-Fc: EVQLVESGGGLVKPGGSLRLSCAASGFTFSSYSMNWVRQAPGKCLEWVSSISRRSGYIYYADSVKGRFTLSRDNAKKSLYLQMNSLRAEDTAVYYCARDLNWAFDYWGQGTLVTVSSGGGGSGGGGSGGGGSGGGGSNFMLTQPHSVSESPGKTVTISCTRSSGSIASNYVQWYQQRPGSSPTTVIYEDNHRPSGVPDRFSGSIDSSSNSASLTIAGLKTEDEADYYCQSYDSSNVVFGCGTKLTVLGGGGSDKTHTCPPCPAPEFEGGPSVFLFPPKPKDTLMISRTPEVTCVVVDVSHEDPEVKFNWYVDGVEVHNAKTKPREEQYNSTYRVVSVLTVLHQDWLNGKEYKCKVSNKALPASIEKTISKAKGQPREPQVYTLPPCREEMTKNQVSLWCLVKGFYPSDIAVEWESNGQPENNYKTTPPVLDSDGSFFLYSKLTVDKSRWQQGNVFSCSVMHEALHNHYTQKSLSLSPGK
heavy: EVQLVQSGAEVKKPGSSVKVSCKASGYTITDSNIHWVRQAPGQSLEWIGYIYPYNGGTDYNQKFKNRATLTVDNPTNTAYMELSSLRSEDTAFYYCVNGNPWLAYWGQGTLVTVSSASTKGPSVFPLAPSSKSTSGGTAALGCLVKDYFPEPVTVSWNSGALTSGVHTFPAVLQSSGLYSLSSVVTVPSSSLGTQTYICNVNHKPSNTKVDKRVEPKSCDKTHTCPPCPAPEFEGGPSVFLFPPKPKDTLMISRTPEVTCVVVDVSHEDPEVKFNWYVDGVEVHNAKTKPREEQYNSTYRVVSVLTVLHQDWLNGKEYKCKVSNKALPASIEKTISKAKGQPREPQVCTLPPSREEMTKNQVSLSCAVKGFYPSDIAVEWESNGQPENNYKTTPPVLDSDGSFFLVSKLTVDKSRWQQGNVFSCSVMHEALHNRFTQKSLSLSPGK
light: DIQLTQSPSTLSASVGDRVTITCRASESLDNYGIRFLTWFQQKPGKAPKLLMYAASNQGSGVPSRFSGSGSGTEFTLTISSLQPDDFATYYCQQTKEVPWSFGQGTKVEVKRTVAAPSVFIFPPSDEQLKSGTASVVCLLNNFYPREAKVQWKVDNALQSGNSQESVTEQDSKDSTYSLSSTLTLSKADYEKHKVYACEVTHQGLSSPVTKSFNRGEC
notes: KiH heterodimer
With B4 the “% Positive” value [1] was 99.2%, the gMFI [1] was 69800 gMFI and the “% Positive” value [2] was 99.7%. It also gave a gMFI [2] of 149000 gMFI, a gMFI [3] of 11300 gMFI and a gMFI [4] of 15900 gMFI. The “Jurkat WT/KO (Fold)” value [5] was 5.3 fold and the “Jurkat WT/KO (Fold)” value [6] was 7.2 fold.
